# According to the Immune Epitope Database (IEDB):
# Tests used:
# [1] = molecular target: HLA-B*07:02; assay: IEDB peptide-MHC binding, purified MHC/competitive/radioactivity; filed as Kd, often an IC50 or EC50 that approximates it; ≥ and ≤ were set here for values at or beyond the usual limits of such assays
# [2] = molecular target: HLA-B*35:01; assay: as above
# [3] = molecular target: HLA-B*51:01; assay: as above
# [4] = molecular target: HLA-B*53:01; assay: as above
# [5] = molecular target: HLA-B*54:01; assay: as above
# [6] = molecular target: HLA-A*02:01; assay: as above
# [7] = molecular target: HLA-A*02:06; assay: as above
# [8] = molecular target: HLA-A*68:02; assay: as above
# [9] = molecular target: HLA-A*03:01; assay: as above
# [10] = molecular target: HLA-A*11:01; assay: as above
# [11] = molecular target: HLA-A*31:01; assay: as above
# [12] = molecular target: HLA-A*33:01; assay: as above
# [13] = molecular target: HLA-A*68:01; assay: as above
# [14] = molecular target: HLA-A*02:02; assay: as above
# [15] = molecular target: HLA-A*02:03; assay: as above
# [16] = molecular target: HLA-B*48:01; assay: IEDB peptide-MHC binding, purified MHC/direct/fluorescence; filed as Kd, often an IC50 or EC50 that approximates it; ≥ and ≤ were set here for values at or beyond the usual limits of such assays
# [17] = molecular target: HLA-A*02:01; assay: as above
# [18] = molecular target: HLA-A*26:01; assay: IEDB peptide-MHC binding, purified MHC/competitive/fluorescence; filed as Kd, often an IC50 or EC50 that approximates it; ≥ and ≤ were set here for values at or beyond the usual limits of such assays
# [19] = molecular target: HLA-A*69:01; assay: as above; conditions: source organism: Homo sapiens
# [20] = molecular target: HLA-B*18:01; assay: as above
# [21] = molecular target: HLA-B*27:03; assay: as above
# [22] = molecular target: HLA-B*46:01; assay: as above; conditions: source organism: Homo sapiens
# [23] = molecular target: HLA-B*51:01; assay: as above
# [24] = molecular target: HLA-B*57:01; assay: as above
# [25] = molecular target: HLA-B*15:01; assay: as above
# [26] = molecular target: HLA-A*03:01; assay: IEDB peptide-MHC binding, purified MHC/direct/fluorescence; filed as Kd, often an IC50 or EC50 that approximates it; ≥ and ≤ were set here for values at or beyond the usual limits of such assays; conditions: source organism: Orthohantavirus tulaense
# [27] = source organism: SARS coronavirus Tor2
# [28] = source organism: Mammarenavirus guanaritoense
# [29] = source organism: Vaccinia virus Copenhagen
# [30] = source organism: Trypanosoma cruzi
# [31] = source organism: Triticum aestivum
# [32] = source organism: Vaccinia virus WR
# [33] = source organism: Orthohantavirus tulaense
# [34] = source organism: Mammarenavirus machupoense
sequence,measurement,setting,value
APAHVSTIGV,Kd,[1]; [27],34.4 nM
same,Kd,[2]; [27],10500 nM
same,Kd,[3]; [27],12500 nM
same,Kd,[4]; [27],17000 nM
same,Kd,[5]; [27],3110 nM
CPMCCSKIL,Kd,[1]; [28],21.7 nM
same,Kd,[2]; [28],18 nM
same,Kd,[3]; [28],182 nM
same,Kd,[4]; [28],62.9 nM
same,Kd,[5]; [28],155 nM
ELRSKREQEV,Kd,[6]; source organism: Homo sapiens,18800 nM
same,Kd,[7]; source organism: Homo sapiens,≥ 72500 nM
same,Kd,[8]; source organism: Homo sapiens,2530 nM
EMRQKHSQAV,Kd,[6]; source organism: Homo sapiens,≥ 33900 nM
same,Kd,[7]; source organism: Homo sapiens,≥ 72500 nM
same,Kd,[8]; source organism: Homo sapiens,512 nM
FILGIIITV,Kd,[9]; [29],1500 nM
same,Kd,[10]; [29],19600 nM
same,Kd,[11]; [29],1170 nM
same,Kd,[12]; [29],4510 nM
same,Kd,[13]; [29],3210 nM
same,Kd,[1]; [29],≥ 32700 nM
same,Kd,[2]; [29],≥ 39600 nM
same,Kd,[3]; [29],≥ 68400 nM
same,Kd,[4]; [29],5540 nM
same,Kd,[5]; [29],3340 nM
FLPSDFFPSA,Kd,[6]; source organism: Hepatitis B virus,23 nM
GLLPLFLLLG,Kd,[6]; [30],0.154 nM
same,Kd,[14]; [30],29.1 nM
same,Kd,[15]; [30],138 nM
same,Kd,[7]; [30],18.3 nM
same,Kd,[8]; [30],7590 nM
IPEQSRCQAI,Kd,[1]; [31],14.6 nM
same,Kd,[2]; [31],519 nM
same,Kd,[3]; [31],246 nM
same,Kd,[4]; [31],519 nM
same,Kd,[5]; [31],≥ 32400 nM
KPAMSTYSDI,Kd,[1]; [32],161 nM
same,Kd,[2]; [32],≥ 63700 nM
same,Kd,[3]; [32],14000 nM
same,Kd,[4]; [32],8830 nM
same,Kd,[5]; [32],9870 nM
KPDGSDSMDV,Kd,[1]; [32],244 nM
same,Kd,[2]; [32],≥ 69900 nM
same,Kd,[3]; [32],≥ 69600 nM
same,Kd,[4]; [32],≥ 69900 nM
same,Kd,[5]; [32],≥ 69900 nM
KPDHDGNTPL,Kd,[1]; [32],31 nM
same,Kd,[2]; [32],3280 nM
same,Kd,[3]; [32],≥ 69600 nM
same,Kd,[4]; [32],7080 nM
same,Kd,[5]; [32],≥ 41000 nM
KPKPAVRYAI,Kd,[1]; source organism: Variola virus,4.72 nM
same,Kd,[2]; source organism: Variola virus,≥ 69900 nM
same,Kd,[3]; source organism: Variola virus,≥ 69600 nM
same,Kd,[4]; source organism: Variola virus,≥ 69900 nM
same,Kd,[5]; source organism: Variola virus,12500 nM
KQIAEHATI,Kd,[16]; source organism: Bacillus thuringiensis,351 nM
KQLGQVMLL,Kd,[16]; source organism: dengue virus type 2,6.2 nM
same,Kd,[7]; source organism: Dengue virus 2 Jamaica/1409/1983,5.17 nM
KQMEDGHTL,Kd,[17]; source organism: Rattus norvegicus,4.8 nM
same,Kd,[18]; source organism: Homo sapiens,≥ 20000 nM
same,Kd,[19],≥ 20000 nM
same,Kd,[20]; source organism: Homo sapiens,≥ 20000 nM
same,Kd,[21]; source organism: Homo sapiens,≥ 20000 nM
same,Kd,[22],≥ 20000 nM
same,Kd,[23]; source organism: Homo sapiens,≥ 20000 nM
same,Kd,[24]; source organism: Homo sapiens,≥ 20000 nM
LMIFISSFLL,Kd,[14]; [32],2.93 nM
same,Kd,[15]; [32],80.1 nM
same,Kd,[7]; [32],76.4 nM
same,Kd,[9]; [32],420 nM
same,Kd,[10]; [32],1210 nM
same,Kd,[11]; [32],284 nM
same,Kd,[12]; [32],707 nM
same,Kd,[13]; [32],283 nM
same,Kd,[8]; [32],73.3 nM
same,Kd,[1]; [32],≥ 27200 nM
same,Kd,[2]; [32],≥ 20900 nM
same,Kd,[3]; [32],1600 nM
same,Kd,[4]; [32],971 nM
same,Kd,[5]; [32],3240 nM
LPNVDLTTM,Kd,[1]; [32],54.9 nM
same,Kd,[2]; [32],0.159 nM
same,Kd,[3]; [32],62.2 nM
same,Kd,[4]; [32],0.222 nM
same,Kd,[5]; [32],717 nM
LTDLGLIYTA,Kd,[6]; source organism: Lassa virus GA391,893 nM
LTVILGVLL,Kd,[6]; source organism: Homo sapiens,2630 nM
LVKSAWLSL,Kd,[18]; source organism: Homo sapiens,≥ 20000 nM
same,Kd,[19],≥ 20000 nM
same,Kd,[25]; source organism: Homo sapiens,≥ 20000 nM
same,Kd,[23]; source organism: Homo sapiens,≥ 20000 nM
LVVDFSQFSR,Kd,[6]; source organism: Hepatitis B virus subtype adw2,≥ 35000 nM
NPDQNTFPNI,Kd,[1]; [32],≥ 69600 nM
same,Kd,[2]; [32],≥ 69900 nM
same,Kd,[3]; [32],≥ 33600 nM
same,Kd,[4]; [32],3740 nM
same,Kd,[5]; [32],≥ 69900 nM
NPIQLSSYSL,Kd,[1]; [27],416 nM
same,Kd,[2]; [27],395 nM
same,Kd,[3]; [27],246 nM
same,Kd,[4]; [27],531 nM
same,Kd,[5]; [27],1770 nM
QPYLQLQPF,Kd,[1]; [31],149 nM
same,Kd,[2]; [31],6.19 nM
same,Kd,[3]; [31],101 nM
same,Kd,[4]; [31],478 nM
same,Kd,[5]; [31],11000 nM
RPPLNRNYV,Kd,[1]; [27],61 nM
same,Kd,[2]; [27],≥ 21400 nM
same,Kd,[3]; [27],10300 nM
same,Kd,[4]; [27],≥ 78200 nM
same,Kd,[5]; [27],661 nM
SFSLESDSIK,Kd,[6]; [32],≥ 69400 nM
same,Kd,[14]; [32],≥ 70000 nM
same,Kd,[15]; [32],≥ 70400 nM
same,Kd,[7]; [32],≥ 59700 nM
same,Kd,[9]; [32],≥ 22000 nM
same,Kd,[10]; [32],5910 nM
same,Kd,[11]; [32],2660 nM
same,Kd,[12]; [32],≥ 70000 nM
same,Kd,[13]; [32],7760 nM
same,Kd,[8]; [32],≥ 69800 nM
same,Kd,[1]; [32],≥ 69600 nM
same,Kd,[2]; [32],≥ 69900 nM
same,Kd,[3]; [32],≥ 69600 nM
same,Kd,[4]; [32],≥ 69900 nM
same,Kd,[5]; [32],≥ 69900 nM
SLFGAAVSL,Kd,[17]; source organism: Orthohantavirus andesense,≤ 0.1 nM
same,Kd,[26],≥ 20000 nM
same,Kd,[18]; [33],≥ 20000 nM
same,Kd,[25]; [33],49.7 nM
same,Kd,[20]; [33],≥ 20000 nM
same,Kd,[21]; [33],≥ 20000 nM
same,Kd,[23]; [33],≥ 20000 nM
same,Kd,[24]; [33],≥ 20000 nM
SLHVGTQCA,Kd,[6]; source organism: Homo sapiens,1440 nM
SLRVLAAGL,Kd,[6]; source organism: Homo sapiens,≥ 50000 nM
SPAHLINKLL,Kd,[1]; [32],26.6 nM
same,Kd,[2]; [32],≥ 51000 nM
same,Kd,[3]; [32],5340 nM
same,Kd,[4]; [32],6850 nM
same,Kd,[5]; [32],2960 nM
SPGEIKPKF,Kd,[1]; [32],79.7 nM
same,Kd,[2]; [32],8550 nM
same,Kd,[3]; [32],≥ 70200 nM
same,Kd,[4]; [32],174 nM
same,Kd,[5]; [32],≥ 51100 nM
SRLLMRRMR,Kd,[16]; source organism: Yellow fever virus,≥ 20000 nM
TFFSYLMKDK,Kd,[6]; [32],≥ 69400 nM
same,Kd,[14]; [32],≥ 50300 nM
same,Kd,[15]; [32],≥ 70400 nM
same,Kd,[7]; [32],≥ 69800 nM
same,Kd,[9]; [32],1600 nM
same,Kd,[10]; [32],12.8 nM
same,Kd,[11]; [32],560 nM
same,Kd,[12]; [32],2690 nM
same,Kd,[13]; [32],95.9 nM
same,Kd,[8]; [32],≥ 69800 nM
same,Kd,[1]; [32],16200 nM
same,Kd,[2]; [32],≥ 69900 nM
same,Kd,[3]; [32],≥ 69600 nM
same,Kd,[4]; [32],≥ 24200 nM
same,Kd,[5]; [32],≥ 69900 nM
VPINVAEAY,Kd,[1]; [34],13700 nM
same,Kd,[2]; [34],6.28 nM
same,Kd,[3]; [34],≥ 57000 nM
same,Kd,[4]; [34],202 nM
same,Kd,[5]; [34],≥ 50500 nM
VPTNDHIPVV,Kd,[1]; [32],170 nM
same,Kd,[2]; [32],10600 nM
same,Kd,[3]; [32],50.9 nM
same,Kd,[4]; [32],12000 nM
same,Kd,[5]; [32],0.661 nM
